# In US20110046068A1 (MEDICAL RESEARCH COUNCIL, published 2011):
# Non-standard residues stand in square brackets, D forms with d.
# B1: 277 (peptide)
# peptide: Ac-[dA]NWN[dA]FGLRF-NH2
# SMILES: CC(=O)N[C@H](C)C(=O)N[C@@H](CC(N)=O)C(=O)N[C@@H](Cc1c[nH]c2ccccc12)C(=O)N[C@@H](CC(N)=O)C(=O)N[C@H](C)C(=O)N[C@@H](Cc1ccccc1)C(=O)NCC(=O)N[C@@H](CC(C)C)C(=O)N[C@@H](CCCNC(=N)N)C(=O)N[C@@H](Cc1ccccc1)C(N)=O
# B2: 237 (peptide)
# peptide: Ac-[dY]NWNGFGWRF-NH2
# SMILES: CC(=O)N[C@H](Cc1ccc(O)cc1)C(=O)N[C@@H](CC(N)=O)C(=O)N[C@@H](Cc1c[nH]c2ccccc12)C(=O)N[C@@H](CC(N)=O)C(=O)NCC(=O)N[C@@H](Cc1ccccc1)C(=O)NCC(=O)N[C@@H](Cc1c[nH]c2ccccc12)C(=O)N[C@@H](CCCNC(=N)N)C(=O)N[C@@H](Cc1ccccc1)C(N)=O
# B3: 275 (peptide)
# peptide: Ac-[dA]NWN[dP]FG[dW]RF-NH2
# SMILES: CC(=O)N[C@H](C)C(=O)N[C@@H](CC(N)=O)C(=O)N[C@@H](Cc1c[nH]c2ccccc12)C(=O)N[C@@H](CC(N)=O)C(=O)N1CCC[C@@H]1C(=O)N[C@@H](Cc1ccccc1)C(=O)NCC(=O)N[C@H](Cc1c[nH]c2ccccc12)C(=O)N[C@@H](CCCNC(=N)N)C(=O)N[C@@H](Cc1ccccc1)C(N)=O
# B4: 246 (peptide)
# peptide: Ac-[dA]NWNG[dW]G[dW]RF-NH2
# SMILES: CC(=O)N[C@H](C)C(=O)N[C@@H](CC(N)=O)C(=O)N[C@@H](Cc1c[nH]c2ccccc12)C(=O)N[C@@H](CC(N)=O)C(=O)NCC(=O)N[C@H](Cc1c[nH]c2ccccc12)C(=O)NCC(=O)N[C@H](Cc1c[nH]c2ccccc12)C(=O)N[C@@H](CCCNC(=N)N)C(=O)N[C@@H](Cc1ccccc1)C(N)=O
# B5: 248 (peptide)
# peptide: Ac-[dA]NWNGFGWRF-NH2
# SMILES: CC(=O)N[C@H](C)C(=O)N[C@@H](CC(N)=O)C(=O)N[C@@H](Cc1c[nH]c2ccccc12)C(=O)N[C@@H](CC(N)=O)C(=O)NCC(=O)N[C@@H](Cc1ccccc1)C(=O)NCC(=O)N[C@@H](Cc1c[nH]c2ccccc12)C(=O)N[C@@H](CCCNC(=N)N)C(=O)N[C@@H](Cc1ccccc1)C(N)=O
# B6: 245 (peptide)
# peptide: Ac-[dY]NWNG[dW]G[dW]RF-NH2
# SMILES: CC(=O)N[C@H](Cc1ccc(O)cc1)C(=O)N[C@@H](CC(N)=O)C(=O)N[C@@H](Cc1c[nH]c2ccccc12)C(=O)N[C@@H](CC(N)=O)C(=O)NCC(=O)N[C@H](Cc1c[nH]c2ccccc12)C(=O)NCC(=O)N[C@H](Cc1c[nH]c2ccccc12)C(=O)N[C@@H](CCCNC(=N)N)C(=O)N[C@@H](Cc1ccccc1)C(N)=O
# B7: 276 (peptide)
# peptide: Ac-[dA]NWNGFG[dL]RF-NH2
# SMILES: CC(=O)N[C@H](C)C(=O)N[C@@H](CC(N)=O)C(=O)N[C@@H](Cc1c[nH]c2ccccc12)C(=O)N[C@@H](CC(N)=O)C(=O)NCC(=O)N[C@@H](Cc1ccccc1)C(=O)NCC(=O)N[C@H](CC(C)C)C(=O)N[C@@H](CCCNC(=N)N)C(=O)N[C@@H](Cc1ccccc1)C(N)=O
# B8: 244 (peptide)
# peptide: Ac-[dF]NWNGFG[dW]RF-NH2
# SMILES: CC(=O)N[C@H](Cc1ccccc1)C(=O)N[C@@H](CC(N)=O)C(=O)N[C@@H](Cc1c[nH]c2ccccc12)C(=O)N[C@@H](CC(N)=O)C(=O)NCC(=O)N[C@@H](Cc1ccccc1)C(=O)NCC(=O)N[C@H](Cc1c[nH]c2ccccc12)C(=O)N[C@@H](CCCNC(=N)N)C(=O)N[C@@H](Cc1ccccc1)C(N)=O
# B9: 239 (peptide)
# peptide: Ac-[dY][dN]WNSFGWRF-NH2
# SMILES: CC(=O)N[C@H](Cc1ccc(O)cc1)C(=O)N[C@H](CC(N)=O)C(=O)N[C@@H](Cc1c[nH]c2ccccc12)C(=O)N[C@@H](CC(N)=O)C(=O)N[C@@H](CO)C(=O)N[C@@H](Cc1ccccc1)C(=O)NCC(=O)N[C@@H](Cc1c[nH]c2ccccc12)C(=O)N[C@@H](CCCNC(=N)N)C(=O)N[C@@H](Cc1ccccc1)C(N)=O
# B10: 274 (peptide)
# peptide: Ac-[dA]NWNPFG[dW]RF-NH2
# SMILES: CC(=O)N[C@H](C)C(=O)N[C@@H](CC(N)=O)C(=O)N[C@@H](Cc1c[nH]c2ccccc12)C(=O)N[C@@H](CC(N)=O)C(=O)N1CCC[C@H]1C(=O)N[C@@H](Cc1ccccc1)C(=O)NCC(=O)N[C@H](Cc1c[nH]c2ccccc12)C(=O)N[C@@H](CCCNC(=N)N)C(=O)N[C@@H](Cc1ccccc1)C(N)=O
# B11: 243 (peptide)
# peptide: Ac-[dW]NWNGFG[dW]RF-NH2
# SMILES: CC(=O)N[C@H](Cc1c[nH]c2ccccc12)C(=O)N[C@@H](CC(N)=O)C(=O)N[C@@H](Cc1c[nH]c2ccccc12)C(=O)N[C@@H](CC(N)=O)C(=O)NCC(=O)N[C@@H](Cc1ccccc1)C(=O)NCC(=O)N[C@H](Cc1c[nH]c2ccccc12)C(=O)N[C@@H](CCCNC(=N)N)C(=O)N[C@@H](Cc1ccccc1)C(N)=O
# B12: 238 (peptide)
# peptide: Ac-[dY]NWNSFG[dW]RF-NH2
# SMILES: CC(=O)N[C@H](Cc1ccc(O)cc1)C(=O)N[C@@H](CC(N)=O)C(=O)N[C@@H](Cc1c[nH]c2ccccc12)C(=O)N[C@@H](CC(N)=O)C(=O)N[C@@H](CO)C(=O)N[C@@H](Cc1ccccc1)C(=O)NCC(=O)N[C@H](Cc1c[nH]c2ccccc12)C(=O)N[C@@H](CCCNC(=N)N)C(=O)N[C@@H](Cc1ccccc1)C(N)=O
# B13: 201 (peptide)
# peptide: Ac-FGARW-NH2
# notes: kisspeptin-10 analogue; also called acFGARW
# B14: 247 (peptide)
# peptide: Ac-[dA]NWNSFG[dW]RF-NH2
# SMILES: CC(=O)N[C@H](C)C(=O)N[C@@H](CC(N)=O)C(=O)N[C@@H](Cc1c[nH]c2ccccc12)C(=O)N[C@@H](CC(N)=O)C(=O)N[C@@H](CO)C(=O)N[C@@H](Cc1ccccc1)C(=O)NCC(=O)N[C@H](Cc1c[nH]c2ccccc12)C(=O)N[C@@H](CCCNC(=N)N)C(=O)N[C@@H](Cc1ccccc1)C(N)=O
# Legend:
# human gpr-54 receptor [1] = target: T1, human gpr-54 receptor (human, UniProt Q969F8 1-398); experiment: cell-based or functional assay
# T1 sequence (Q969F8 whole entry): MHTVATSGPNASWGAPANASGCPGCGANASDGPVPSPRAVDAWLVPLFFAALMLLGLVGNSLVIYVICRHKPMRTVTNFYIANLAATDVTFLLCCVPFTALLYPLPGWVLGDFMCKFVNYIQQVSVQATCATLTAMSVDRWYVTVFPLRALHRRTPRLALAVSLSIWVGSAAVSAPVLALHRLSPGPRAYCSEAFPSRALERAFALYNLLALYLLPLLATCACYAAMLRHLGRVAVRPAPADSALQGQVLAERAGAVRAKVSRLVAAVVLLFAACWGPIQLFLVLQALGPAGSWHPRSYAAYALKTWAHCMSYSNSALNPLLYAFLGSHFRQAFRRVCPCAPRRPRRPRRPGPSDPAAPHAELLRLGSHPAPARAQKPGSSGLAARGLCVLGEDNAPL
# human gpr-54 receptor [2] = target: T1, human gpr-54 receptor; experiment: cell-based or functional assay; remark: listed apart in the source
# human gpr-54 receptor [3] = target: T1, human gpr-54 receptor; experiment: cell-based or functional assay; remark: listed apart in the source
# human gpr-54 receptor [4] = target: T1, human gpr-54 receptor; experiment: cell-based or functional assay; remark: listed apart in the source
# human gpr-54 receptor [5] = target: T1, human gpr-54 receptor; experiment: cell-based or functional assay; remark: listed apart in the source
# human gpr-54 receptor [6] = target: T1, human gpr-54 receptor; experiment: whole-cell competition binding against 125I-kisspeptin, CHO cells stably transfected with GPR54 (CPM); the fall of the curve lies between Total and -10 LogM [201]
# Protocol: Cell monolayers were placed on ice and exposed to 0.5 mls peptide (10 pM-1 uM); the cells were then incubated at 4° C. for 4 hr. After 4 hrs, cells were washed twice with ice cold Dulbecco's phosphate buffered saline (DPBS; with Calcium and Magnesium) and then 0.5 mls 0.1M Sodium Hydroxide (NaOH) were added to cells for 20 minutes, shaking to lyse cells. Lysates were transferred to plastic tubes and bound radioactivity counted on the gamma counter for 60 seconds.
Binder,"IP stimulation (IC50), peptide alone (human gpr-54 receptor [1]) [nM]",Inhibition of IP stimulation by 10nM Agonist: % Inhibition of Max (human gpr-54 receptor [1]) [%],Inhibition of IP stimulation by 10nM Agonist: IC50 (human gpr-54 receptor [1]) [nM],further results
B1,1500,57,0.05,
Ac-[dY][dN]WNSFG[dW]RF-NH2 [241],,24,,
B2,6400,0,,"IP dose response, peptide alone: EC50 (unlabelled number beside rising curve) [237] (human gpr-54 receptor [2]): 6380 nM"
Ac-[dY][dN]WNGFG[dW]RF-NH2 (also: further groups not given here) [242],,15,,
B3,21,44,> 100,
B4,,80,50,
B5,,64,5000,
Ac-RRMKWKKY[dA]NWNGFG[dW]RF-NH2 [Peptide 271],,57,5,
Ac-[dA]NWNGFGL[dR]F-NH2 [278],,47,> 100,
B6,,66,10000,
B7,,65,0.001,
Ac-FG[dL]RW-NH2 [191],20000,79,,"IP dose response, peptide alone: EC50 (unlabelled number beside rising curve) [191] (human gpr-54 receptor [3]): 26100 nM"
B8,,60,10,
B9,5,0,,"IP dose response, peptide alone: EC50 (unlabelled number beside rising curve) [239] (human gpr-54 receptor [4]): 4.99 nM"
B10,530000,73,0.1,
B11,,55,10,
B12,2800,0,,"IP dose response, peptide alone: EC50 (unlabelled number beside rising curve) [238] (human gpr-54 receptor [2]): 2820 nM"
B13,,69,7,IP competition with 10nM kisspeptin-10: IC50 [201] (human gpr-54 receptor [5]): 7 nM; IC50 (human gpr-54 receptor [6]): 0.00432 nM
B14,,80,8,
Ac-[dY][dN]WNGFGWRF-NH2 [240],,39,,
